This is an account of results in publication PMC5986797, “Laminin heparin-binding peptides bind to several growth factors and enhance diabetic wound healing” (Nature Communications, 2018).

To fix the notation:
B1: LAMA3_2928–3150: recombinant human LAMA3 LG domain Ser2928-Cys3150 (linker domain and LG4 domain), 6 His, HEK-293F (protein)
chain: SLNKPPFLMLLKGSTRFNKTKTFRINQLLQDTPVASPRSVKVWQDACSPLPKTQANHGALQFGDIPTSHLLFKLPQELLKPRSQFAVDMQTTSSRGLVFHTGTKNSFMALYLSKGRLVFALGTDGKKLRIKSKEKCNDGKWHTVVFGHDGEKGRLVVDGLRAREGSLPGNSTISIRAPVYLGSPPSGKPKSLPTNSFVGCLKNFQLDSKPLYTPSSSFGVSSC
modifications: left off: His6, N-terminal, state not stated
notes: recombinant human LAMA3 LG domain Ser2928-Cys3150 (linker domain and LG4 domain), 6 His, HEK-293F
B2: LAMA4_826–1816: laminin alpha 4 LG domain recombinant protein (R&D Systems) (protein)
chain: RSVASKIQVSMMFDGQSAVEVHSRTSMDDLKAFTSLSLYMKPPVKRPELTETADQFILYLGSKNAKKEYMGLAIKNDNLVYVYNLGTKDVEIPLDSKPVSSWPAYFSIVKIERVGKHGKVFLTVPSLSSTAEEKFIKKGEFSGDDSLLDLDPEDTVFYVGGVPSNFKLPTSLNLPGFVGCLELATLNNDVISLYNFKHIYNMDPSTSVPCARDKLAFTQSRAASYFFDGSGYAVVRDITRRGKFGQVTRFDIEVRTPADNGLILLMVNGSMFFRLEMRNGYLHVFYDFGFSGGPVHLEDTLKKAQINDAKYHEISIIYHNDKKMILVVDRRHVKSMDNEKMKIPFTDIYIGGAPPEILQSRALRAHLPLDINFRGCMKGFQFQKKDFNLLEQTETLGVGYGCPEDSLISRRAYFNGQSFIASIQKISFFDGFEGGFNFRTLQPNGLLFYYASGSDVFSISLDNGTVIMDVKGIKVQSVDKQYNDGLSHFVISSVSPTRYELIVDKSRVGSKNPTKGKIEQTQASEKKFYFGGSPISAQYANFTGCISNAYFTRVDRDVEVEDFQRYTEKVHTSLYECPIESSPLFLLHKKGKNLSKPKASQNKKGGKSKDAPSWDPVALKLPERNTPRNSHCHLSNSPRAIEHAYQYGGTANSRQEFEHLKGDFGAKSQFSIRLRTRSSHGMIFYVSDQEENDFMTLFLAHGRLVYMFNVGHKKLKIRSQEKYNDGLWHDVIFIRERSSGRLVIDGLRVLEESLPPTEATWKIKGPIYLGGVAPGKAVKNVQINSIYSFSGCLSNLQLNGASITSASQTFSVTPCFEGPMETGTYFSTEGGYVVLDESFNIGLKFEIAFEVRPRSSSGTLVHGHSVNGEYLNVHMKNGQVIVKVNNGIRDFSTSVTPKQSLCDGRWHRITVIRDSNVVQLDVDSEVNHVVGPLNPKPIDHREPVFVGGVPESLLTPRLAPSKPFTGCIRHFVIDGHPVSFSKAALVSGAVS
B3: FGF-7: fibroblast growth factor, PeproTech (protein)
chain: CNDMTPEQMATNVNCSSPERHTRSYDYMEGGDIRVRRLFCRTQWYLRIDKRGKVKGTQEMKNNYNIMEIRTVAVGIVAIKGVESEFYLAMNKEGKLYAKKECNEDCNFKELILENHYNTYASAKWTHNGGEMFVALNQKGIPVRGKKTKKEQKTAHFLPMAIT
B4: BMP-3: bone morphogenetic protein, PeproTech (protein)
chain: QWIEPRNCARRYLKVDFADIGWSEWIISPKSFDAYYCSGACQFPMPKSLKPSNHATIQSIVRAVGVVPGIPEPCCVPEKMSSLSILFFDENKNVVLKVYPNMTVESCACR
B5: BMP-7: bone morphogenetic protein, PeproTech, produced in eukaryotic cells (protein)
chain: STGSKQRSQNRSKTPKNQEALRMANVAENSSSDQRQACKKHELYVSFRDLGWQDWIIAPEGYAAYYCEGECAFPLNSYMNATNHAIVQTLVHFINPETVPKPCCAPTQLNAISVLYFDDSSNVILKKYRNMVVRACGCH
B6: FGF-6: fibroblast growth factor, PeproTech (protein)
chain: SPAGTRANNTLLDSRGWGTLLSRSRAGLAGEIAGVNWESGYLVGIKRQRRLYCNVGIGFHLQVLPDGRISGTHEENPYSLLEISTVERGVVSLFGVRSALFVAMNSKGRLYATPSFQEECKFRETLLPNNYNAYESDLYQGTYIALSKYGRVKRGSKVSPIMTVTHFLPRI
B7: FGF-10: fibroblast growth factor, PeproTech (protein)
chain: QALGQDMVSPEATNSSSSSFSSPSSAGRHVRSYNHLQGDVRWRKLFSFTKYFLKIEKNGKVSGTKKENCPYSILEITSVEIGVVAVKAINSNYYLAMNKKGKLYGSKEFNNDCKLKERIEENGYNTYASFNWQHNGRQMYVALNGKGAPRRGQKTRRKNTSAHFLPMVVHS
B8: BDNF: brain-derived neurotrophic factor, PeproTech (protein, UniProt P23560 19-247, looked up)
Neurotrophic factor BDNF …: APMKEANIRGQGGLAYPGVRTHGTLESVNGPKAGSRGLTSLADTFEHVIEELLDEDQKVRPNEENNKDADLYTSRVMLSSQVPLEPPLLFLLEEYKNYLDAANMSMRVRRHSDPARRGELSVCDSISEWVTAADKKTAVDMSGGTVTVLEKVPVSKGQLKQYFYETKCNPMGYTKEGCRGIDKRHWNSQCRTTQSYVRALTMDSKKRIGWRFIRIDTSCVCTLTIKRGR
B9: PlGF-2: placental growth factor (PlGF)-2, PeproTech (protein)
chain: LPAVPPQQWALSAGNGSSEVEVVPFQEVWGRSYCRALERLVDVVSEYPSEVEHMFSPSCVSLLRCTGCCGDENLHCVPVETANVTMQLLKIRSGDRPSYVELTFSQHVRCECRPLREKMKPERRRPKGRGKRRREKQRPTDCHLCGDAVPRR
B10: PDGF-CC: platelet-derived growth factor, PeproTech (protein)
chain: VVDLNLLTEEVRLYSCTPRNFSVSIREELKRTDTIFWPGCLLVKRCGGNCACCLHNCNECQCVPSKVTKKYHEVLQLRPKTGVRGLHKSLTDVALEHHEECDCVCRGSTGG
B11: PlGF-1: placental growth factor, PeproTech (protein)
chain: LPAVPPQQWALSAGNGSSEVEVVPFQEVWGRSYCRALERLVDVVSEYPSEVEHMFSPSCVSLLRCTGCCGDENLHCVPVETANVTMQLLKIRSGDRPSYVELTFSQHVRCECRPLREKMKPERCGDAVPRR

One assay relates to PlGF-1. Briefly: ELISA: PlGF-1 binding to laminin LG domain / laminin peptide. Set-up: species or system human. The note with it: 1 µg/mL LG domain coated; 1 μg/mL GF; vs BSA-coated wells; n = 4. As to the method:
(§1) ELISA tests were performed as described above. In brief, ELISA plates were coated with 1 μg/mL of laminin alpha 3 LG domain recombinant protein, laminin alpha 4 LG domain recombinant protein (R&D Systems), laminin alpha 5 LG domain recombinant protein (LD BioPharma), or laminin peptide (sequences are described in Supplementary Table 1, chemically synthesized by Genscript) in PBS for 2 h at 37 °C. A concentration of 1 μg/mL of BSA served as non-binding protein control. After blocking with 2% BSA PBS-0.05% Tween 20 (PBS-T) solution, 1 μg/mL of the recombinant human proteins (VEGF-A121, VEGF-A165, PlGF-1, PlGF-2, PDGF-BB, or FGF-2) or 10 μg/mL of biotinylated heparin (Sigma-Aldrich) were added. Bound GF was detected with biotinylated antibodies for human VEGF-A, PlGF, PDGF-BB (R&D Systems, Catalog No. DY220, 1:180 dilution), or FGF-2 (R&D Systems). The antibodies were detected by streptavidin-HRP (R&D Systems).
Take B1: the “binding to PlGF-1 (ELISA), recombinant LG domains” value is on record as “did not show any binding”. Take B2: the “binding to PlGF-1 (ELISA), recombinant LG domains” value is reported as “did not show any binding”.

For a further assay, the system named is recombinant human laminin isoforms (–111, –211, –332, –411, –421, –511, and –521). The assay can be described thus: ELISA: binding of full-length laminin isoforms to absorbed GFs and CXCL chemokines. Particulars: 50 nM GF coated, 10 nM laminin; signals greater than 0.1 indicate binding; n = 4. Here is the method: Ninety-six-well ELISA plates (med-binding, Greiner Bio-One) were coated with 50 nM GFs in 100 µL/well of phosphate-buffered saline (PBS) at 37 °C for more than 2 h. After blocking with 2% BSA solution containing PBS and 0.05% Tween 20 (PBS-T), 10 nM recombinant human laminin isoforms (–111, –211, –332, –411, –421, –511, and –521) (>95% purity tested by SDS-PAGE, BioLamina) in 100 µL/well PBS were added. Bound laminin was detected with 100 µL/well rabbit anti-human LAMC1 polyclonal antibody (Assay Biotech, Catalog No. C13072, 1:1000 dilution in PBS) or rabbit anti-human LAMA3 polyclonal antibody (Assay Biotech, Catalog No. C13066, 1:1000 dilution in PBS). After incubation with biotinylated anti-rabbit antibody for 60 min at room temperature (RT), HRP-conjugated streptavidin (Jackson ImmunoResearch) was added. After 60 min of incubation at RT, 50 μL of TMB substrate (Sigma-Aldrich) was added. The reactions were stopped by adding 25 μL of 2 N H2SO4. Subsequently, the absorbance at 450 nm was measured with a reference of 570 nm.
In the case of B3, the “binding to all tested laminin isoforms (ELISA, A450 nm)” value (“binding to all tested laminin isoforms” for short) is given as “bound”.

Turning to B4, the “binding to all tested laminin isoforms” value is “showed binding”. Still for that read-out and setting: to B5 belongs “not”; to B6, “did not”; to B7, “bound”. Regarding B8, the “binding to all tested laminin isoforms” value is listed as “strong binding”. Consider B9, for which the “binding to all tested laminin isoforms” value was “bound”. As to B10, the “binding to all tested laminin isoforms” value is “bound”. Still for that read-out and setting: in the case of B11 it was “did not show binding”.

The next assay has as its system PDGF-BB. Briefly: ELISA: PDGF-BB binding to laminin LG domain / laminin peptide. Set-up: species or system human. The note with it: 1 µg/mL LG domain coated; 1 μg/mL GF; vs BSA-coated wells; n = 4. Here is the method: as §1
In the case of B1, the “binding to PDGF-BB (ELISA), recombinant LG domains” value is recorded as “bound”.

With B2, the “binding to PDGF-BB (ELISA), recombinant LG domains” value is given as “bound”.

For the next assay, the system named is PlGF-2. The assay can be described thus: ELISA: PlGF-2 binding to laminin LG domain / laminin peptide. Details: species or system human. Particulars: 1 µg/mL LG domain coated; 1 μg/mL GF; vs BSA-coated wells; n = 4. Here is the method:
as §1
B1: the “binding to PlGF-2 (ELISA), recombinant LG domains” value is given as “bound”. With B2, the “binding to PlGF-2 (ELISA), recombinant LG domains” value is on record as “bound”.

The subject of a further assay is VEGF-A165. The assay can be described thus: ELISA: VEGF-A165 binding to laminin LG domain / laminin peptide. Details: species or system human. The note with it: 1 µg/mL LG domain coated; 1 μg/mL GF; vs BSA-coated wells; n = 4. Here is the method:
as §1, with “ELISA plates were coated with 1 μg/mL of laminin alpha 3 LG domain” left out
On to B1, for which the “binding to VEGF-A165 (ELISA), recombinant LG domains” value is on record as “bound”. Take B2: the “binding to VEGF-A165 (ELISA), recombinant LG domains” value is “bound”.

For the next assay, the system named is FGF-2. Briefly: ELISA: FGF-2 binding to laminin LG domain / laminin peptide. Set-up: species or system human. The note with it: 1 µg/mL LG domain coated; 1 μg/mL GF; vs BSA-coated wells; n = 4. As to the method: as §1
For B1, the “binding to FGF-2 (ELISA), recombinant LG domains” value is reported as “bound”. Regarding B2, the “binding to FGF-2 (ELISA), recombinant LG domains” value is “bound”.

A further assay has as its system VEGF-A121. Briefly: ELISA: VEGF-A121 binding to laminin LG domain / laminin peptide. Particulars: 1 µg/mL LG domain coated; 1 μg/mL GF; vs BSA-coated wells; n = 4. Set-up: species or system human. As to the method: as §1
Consider B1, for which the “binding to VEGF-A121 (ELISA), recombinant LG domains” value was “did not show any binding”.

Regarding B2, the “binding to VEGF-A121 (ELISA), recombinant LG domains” value is “did not show any binding”.
